Assay results from patent publication CN117836322A (PASTEUR INSTITUT, dated 2024).
Several values for one entry are separate records, joined by “and”; a condition that tells them apart may be missing. Equal values may be shown once.

B1: Cv2.3194 IgG1 (antibody, V domains shown)
VH: EVQLVESGGGLIQPGGSLRLSCAASGITVTSNYMSWVRQAPGKGLEWVSVIYPGGSTFYADSVKGRFTISRDNSKNTLYLQMNSLRAEDTAVYYCARDLVVYGMDVWGQGTTVTVSS
VL: EIVLTQSPGTLSLSPGERATLSCRASQSVSSSYLAWYQQKPGQAPRLLIYGASSRATGIPGRFSGSGSGTDFTLTISRLEPEDFAIYYCQQGVTFGGGTKVEIKR
B2: Cv2.1169 IgG1 (antibody, V domains shown)
VH: QVQLVQSGPEVKKPGTSVKVSCKASGFTFTTSAVQWVRQARGQRLEWIGWIVVGSGNTNYAQKFQERVTITRDMSTTTAYMELSSLRSEDTAVYYCAAPYCSGGTCLDGFDIWGQGTMVTVSS
VL: not shown

Legend:
[1] = molecular target: SARS-CoV-2 Omicron BA.1 spike on virus (SARS-CoV-2); test: cell-based or functional assay
[2] = molecular target: SARS-CoV-2 Delta (δ, B.1.617.2) spike on virus (SARS-CoV-2); test: cell-based or functional assay

| Binder | IC50 (S-融合测定) [1] | IC50 (中和) [1] [µg/mL] | IC50 (S-融合测定) [2] [µg/mL] |
| --- | --- | --- | --- |
| B1 | 0.0242 µg/mL | – | – |
| B2 | 0.253 µg/mL and 0.212 µg/mL | ~0.25 | 0.00446 |
